Experimental data reported in US7910106B2, “Combinations of SAP depleting agents and anti-SAP antibodies” (Pentraxin Therapeutics Ltd., priority 2007, dated 2011).
Blank lines part the entries; values can stand above or below the compound they belong to.

Tests used:
SAP [1] = biological target: T1, SAP (Homo sapiens, UniProt P02743); test: CPHPC administration in human systemic amyloidosis patients; format: in vivo; set-up: Human SAP is a constitutive protein in the plasma; from tissue; host or cells: plasma/serum and amyloid deposits of human patients; conditions: after months of continuous CPHPC administration
SAP [2] = biological target: T1, SAP; test: Human SAP in serum and organ extracts by electroimmunoassay, AA amyloidotic human SAP transgenic mice (Example 1); format: in vivo, mouse; set-up: from tissue; host or cells: serum, spleen and liver of C57BL/6 mice with the mouse SAP gene deleted and transgenic for human SAP; conditions: for Human SAP concentrations in serum [mean (SD)]: post CPHPC before antibody day 0, CPHPC 1 mg/ml in drinking water
Description: In the present study AA amyloidosis was induced in mice by amyloid enhancing factor injection followed by repeated casein injections to elicit persistent acute inflammation and thus sufficiently sustained increase in SAA production to promote AA amyloid deposition in all animals. A unique strain of pure line C57BL/6 animals was used in which the mouse SAP gene has been deleted^13 and a human SAP transgene has been introduced^14, 15. […] We then treated three very closely matched groups as follows:
Systemic AA amyloidosis was induced in adult male (n=61) and female (n=32) pure line C57BL/6 mice with the mouse SAP gene deleted and which were transgenic for human SAP^15. Each mouse received a single dose of amyloid enhancing factor^9 by intravenous injection followed 4 days later by 10 daily subcutaneous injections of 10% w/v casein in solution in 0.1M NaHCO3 administered over a 12 day period^13. Seven days after the last casein injection, KI was introduced into the drinking water of all mice and 3 days later each mouse received an intravenous injection of a standard dose of ^125I-labelled human SAP^6,18. Four adult male and four female mice from the same colony but which had not received any other treatment were also given KI and ^125I-SAP as controls. All mice underwent whole body counting 24, 48, 72 96 and 168 h after the tracer injection to determine retention of radioactivity as an index of whole body amyloid load. […] The mice were then allocated to three closely matched groups with as close as possible to the same total numbers and sex distribution in each group. Ten days after the ^125I-SAP injection groups one and two were started on CPHPC in their drinking water at 1 mg/ml and continued on that treatment until the end of the experiment. Group three received no treatment at this or any later stage of the study. Five days after starting the CPHPC each animal in group one received an intraperitoneal injection comprising 1 ml of the whole IgG fraction of monospecific sheep anti-human SAP antiserum at 50 mg/ml containing 7 mg/ml of specific antibody in solution in phosphate buffered physiological saline. The antiserum was raised by immunisation of sheep with 100% pure human SAP. At the same time all animals in group 2 received an intraperitoneal injection comprising 1 ml of the whole IgG fraction of monospecific sheep anti-human oncostatin M receptor antiserum at 50 mg/ml in solution in phosphate buffered physiological saline. […] Twenty eight days after the intraperitoneal injections all mice were killed by bleeding out under terminal anaesthesia and the liver and spleen from each were removed. Each organ was weighed and then divided into three portions, one of which was also weighed and used for extraction of SAP, while the second portion was snap frozen for subsequent immunohistochemical and cytochemical analysis without fixation, and the last part was fixed in buffered formalin for routine histology and estimation of amyloid by Congo red staining^19. All mice were weighed at the time of assignment to the groups after induction of amyloidosis but before administration of ^125I-SAP. They were all weighed again before being killed at the end of the experiment. All mice were bled four times: (1) immediately before groups […] were started on CPHPC; (2) the day before injection of IgG preparations in groups […]; (3) 14 days after the IgG injections; (4) at the time of killing. Sections of spleen and liver of all animals stained with Congo red were independently examined by three different expert observers blinded to the treatment each mouse had received and scored for the amount of amyloid present as previously reported. The scores of 10^0-10^4 represent an approximately log base 10 ranking scale from 10^0, corresponding to one or two tiny specks of amyloidosis among several sections of a particular organ, to 10^4 corresponding to abundant widespread deposits comprising about 10,000 times more amyloid^13. […]

SAP [3] = biological target: T1, SAP; set-up: Human SAP is a constitutive protein in the plasma; from tissue; host or cells: plasma/serum and amyloid deposits of human patients; conditions: in vivo; cited from earlier work
SAP [4] = biological target: T1, SAP; test: Treatment of a patient with systemic amyloidosis using CPHPC and anti-SAP antibody (Example 2); format: in vivo; set-up: Human SAP is a constitutive protein in the plasma; from tissue; host or cells: plasma/serum and amyloid deposits of human patients; conditions: day after bolus intravenous 100 mg CPHPC
Protocol: A patient suffering from systemic amyloidosis is diagnosed by clinical examination and routine investigations leading to suspicion of amyloidosis, followed by specific confirmation by expert histochemical examination of biopsies of affected tissues. Radiolabelled SAP scintigraphy is performed in the UK NHS National Amyloidosis Centre at the Centre for Amyloidosis and Acute Phase Proteins in the Department of Medicine of University College London at the Royal Free Hospital. […] Routine clinical investigations of organ function establish the extent and severity of tissue and organ damage caused by the amyloid deposits, as well as the presence and severity of any underlying primary disease which may have led to amyloid deposition.
The patient is treated with the SAP depleting drug, CPHPC, administered by bolus intravenous injection of a dose of 100 mg. The following day a blood sample is taken. This confirms by specific immunoassay that the SAP concentration in the serum has been reduced by 90%. An intravenous infusion of anti-SAP antibody is then commenced and over a period of several hours a dose of 1000 mg of antibody is administered sufficient to bind to SAP within the amyloid deposits throughout the body. CPHPC is administered parenterally twice daily for the next two weeks, to ensure that plasma SAP values remain suppressed. […]

[5] = cited from earlier work
[6] = biological target: human serum amyloid P component (SAP), isolated pure, native (human) (UniProt P02743); test: IRMA, SAP alone covalently immobilised, in EDTA, radiolabelled sheep anti-mouse IgG, mean n=3
[7] = biological target: human serum amyloid P component (SAP), isolated pure, native (human) (UniProt P02743); test: Biacore (SPR), isolated pure SAP alone immobilised on the chip
[8] = biological target: human serum amyloid P component (SAP), isolated pure, native (human) (UniProt P02743); test: IRMA, SAP non-covalently immobilised, antibody at 0.01 ug/ml, detection polyvalent anti-mouse IgG
[9] = biological target: human serum amyloid P component (SAP), isolated pure, native (human) (UniProt P02743); test: IRMA, SAP non-covalently immobilised, antibody at 0.001 ug/ml, detection polyvalent anti-mouse IgG
[10] = biological target: human serum amyloid P component (SAP), isolated pure, native (human) (UniProt P02743); test: IRMA, SAP non-covalently immobilised, antibody at 1 ug/ml, detection polyvalent anti-mouse IgG
[11] = biological target: human serum amyloid P component (SAP), isolated pure, native (human) (UniProt P02743); test: IRMA, SAP alone captured on immobilised sheep polyclonal anti-human SAP, in calcium, radiolabelled sheep anti-mouse IgG, mean n=3
[12] = biological target: human serum amyloid P component (SAP), isolated pure, native (human) (UniProt P02743); test: IRMA, SAP non-covalently immobilised, antibody at 1 ug/ml, detection anti-mouse IgG2a
[13] = biological target: human SAP complexed with CPHPC and covalently cross-linked with BS3 (human) (UniProt P02743); test: IRMA, SAP-CPHPC complex captured on immobilised sheep polyclonal anti-human SAP, in calcium, radiolabelled sheep anti-mouse IgG, mean n=3
[14] = biological target: human SAP complexed with CPHPC and covalently cross-linked with BS3 (human) (UniProt P02743); test: IRMA, SAP-CPHPC complex covalently immobilised, in EDTA, radiolabelled sheep anti-mouse IgG, mean n=3
[15] = biological target: human serum amyloid P component (SAP), isolated pure, native (human) (UniProt P02743); test: IRMA, SAP non-covalently immobilised, antibody at 0.1 ug/ml, detection anti-mouse IgG2a
[16] = biological target: human serum amyloid P component (SAP), isolated pure, native (human) (UniProt P02743); test: IRMA, SAP non-covalently immobilised, antibody at 0.01 ug/ml, detection anti-mouse IgG2a
[17] = biological target: human serum amyloid P component (SAP), isolated pure, native (human) (UniProt P02743); test: IRMA, SAP non-covalently immobilised, antibody at 100 ug/ml, detection anti-mouse IgG2a
[18] = biological target: human serum amyloid P component (SAP), isolated pure, native (human) (UniProt P02743); test: IRMA, SAP non-covalently immobilised, antibody at 10 ug/ml, detection polyvalent anti-mouse IgG
[19] = biological target: human serum amyloid P component (SAP), isolated pure, native (human) (UniProt P02743); test: IRMA, SAP non-covalently immobilised, antibody at 0.1 ug/ml, detection polyvalent anti-mouse IgG
[20] = biological target: human serum amyloid P component (SAP), isolated pure, native (human) (UniProt P02743); test: IRMA, SAP non-covalently immobilised, antibody at 10 ug/ml, detection anti-mouse IgG2a
[21] = biological target: human serum amyloid P component (SAP), isolated pure, native (human) (UniProt P02743); test: IRMA, SAP non-covalently immobilised, antibody at 0.001 ug/ml, detection anti-mouse IgG2a
[22] = biological target: human SAP complexed with CPHPC and covalently cross-linked with BS3 (human) (UniProt P02743); test: IRMA, SAP-CPHPC complex covalently immobilised, in calcium, radiolabelled sheep anti-mouse IgG, mean n=3
[23] = biological target: human serum amyloid P component (SAP), isolated pure, native (human) (UniProt P02743); test: IRMA, SAP non-covalently immobilised, antibody at 100 ug/ml, detection polyvalent anti-mouse IgG
[24] = biological target: human serum amyloid P component (SAP), isolated pure, native (human) (UniProt P02743); test: IRMA, SAP alone covalently immobilised, in calcium, radiolabelled sheep anti-mouse IgG, mean n=3

T1 sequence (P02743 20-223): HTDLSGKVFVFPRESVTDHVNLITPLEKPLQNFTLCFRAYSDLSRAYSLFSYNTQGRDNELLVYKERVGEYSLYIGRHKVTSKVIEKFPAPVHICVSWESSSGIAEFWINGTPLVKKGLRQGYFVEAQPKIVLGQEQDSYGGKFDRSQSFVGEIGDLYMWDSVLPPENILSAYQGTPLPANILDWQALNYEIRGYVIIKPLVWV
Sequence of human serum amyloid P component (SAP), isolated pure, native (human) (P02743 20-223): as above
Sequence of human SAP complexed with CPHPC and covalently cross-linked with BS3 (human) (P02743 20-223, one chain of several): as the sequence (P02743 20-223) above

Greatest depletion of SAP from amyloid deposits (SAP [1]): about 90% | Human SAP concentrations in serum [mean (SD)] (SAP [2]; females): 4.0 (1.4) mg/l | Human SAP concentrations in serum (SAP [2]; females, post antibody day 14): trace | Human SAP concentrations in serum (SAP [2]; females, post antibody day 28): trace | Human SAP concentrations in serum [mean (SD)] (SAP [2]; males): 2.9 (1.3) mg/l | Human SAP concentrations in serum (SAP [2]; males, post antibody day 14): trace | Human SAP concentrations in serum (SAP [2]; males, post antibody day 28): trace | Reduction of SAP concentration in the serum (SAP [4]): 90%
Compound: O=C(O)[C@H]1CCCN1C(=O)CCCCC(=O)N1CCC[C@@H]1C(=O)O [CPHPC, (R)-1-[6-[(R)-2-Carboxy-pyrrolidin-1-yl]-6-oxo-hexanoyl]pyrrolidine-2-carboxylic acid]
Tolerability / adverse effects (SAP [3]): extremely well tolerated

Compound: human SAP: isolated pure human SAP injected to load amyloid deposits
Half time of persistence in amyloid deposits ([5]; amyloidotic mice): 3 to 4 days | Half life of clearance from the circulation ([5]; human SAP not bound to amyloid): 3 to 4 h

Activity bound (d.p.m.) [6]: 4050 d.p.m. | koff [7]: 6e-05 s⁻¹ | kon [7]: 20000 M⁻¹ s⁻¹ | Activity bound (d.p.m.) [8]: 902 d.p.m. | Activity bound (d.p.m.) [9]: 195 d.p.m. | Activity bound (d.p.m.) [10]: 12100 d.p.m. | Activity bound (d.p.m.) [11]: 9310 d.p.m. | Activity bound (d.p.m.) [12]: 1650 d.p.m. | Activity bound (d.p.m.) [13]: 7120 d.p.m. | Activity bound (d.p.m.) [14]: 5140 d.p.m. | Activity bound (d.p.m.) [15]: 589 d.p.m. | Activity bound (d.p.m.) [16]: 222 d.p.m. | Activity bound (d.p.m.) [17]: 2200 d.p.m. | Activity bound (d.p.m.) [18]: 15400 d.p.m. | Activity bound (d.p.m.) [19]: 4560 d.p.m. | Activity bound (d.p.m.) [20]: 1980 d.p.m. | Activity bound (d.p.m.) [21]: 94 d.p.m. | Activity bound (d.p.m.) [22]: 6160 d.p.m. | Activity bound (d.p.m.) [23]: 16200 d.p.m. | Activity bound (d.p.m.) [24]: 5580 d.p.m.
Compound: mouse monoclonal anti-human SAP antibody SAP-5
